In patent US20240026019A1 (Innovent, published 2024):

T1: human TNFR2 overexpressed on CHO-S cells (CHOS-hTNFR2) (human, UniProt P20333 23-461)
T1 construct: also called hTNFR2 CHO-S; human TNFR2 molecule overexpressed on CHO-S cells
T1 sequence: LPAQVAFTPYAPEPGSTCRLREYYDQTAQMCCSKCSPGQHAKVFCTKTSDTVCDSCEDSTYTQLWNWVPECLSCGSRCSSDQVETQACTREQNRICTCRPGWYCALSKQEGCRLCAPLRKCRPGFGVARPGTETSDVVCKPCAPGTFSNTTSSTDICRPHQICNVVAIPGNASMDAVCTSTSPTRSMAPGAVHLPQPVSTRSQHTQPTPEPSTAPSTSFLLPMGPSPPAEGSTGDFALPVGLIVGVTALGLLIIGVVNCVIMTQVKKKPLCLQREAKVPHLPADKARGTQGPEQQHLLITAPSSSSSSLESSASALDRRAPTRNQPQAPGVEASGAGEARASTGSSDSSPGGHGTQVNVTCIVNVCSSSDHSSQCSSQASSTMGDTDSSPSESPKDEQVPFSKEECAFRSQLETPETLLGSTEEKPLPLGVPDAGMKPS

T2: TNFR2 on human K562 chronic myeloid leukemia cells and on primary human Treg cells (human, UniProt P20333 23-461)
T2 construct: whole, on cells; also called K562 cells
T2 sequence (looked up): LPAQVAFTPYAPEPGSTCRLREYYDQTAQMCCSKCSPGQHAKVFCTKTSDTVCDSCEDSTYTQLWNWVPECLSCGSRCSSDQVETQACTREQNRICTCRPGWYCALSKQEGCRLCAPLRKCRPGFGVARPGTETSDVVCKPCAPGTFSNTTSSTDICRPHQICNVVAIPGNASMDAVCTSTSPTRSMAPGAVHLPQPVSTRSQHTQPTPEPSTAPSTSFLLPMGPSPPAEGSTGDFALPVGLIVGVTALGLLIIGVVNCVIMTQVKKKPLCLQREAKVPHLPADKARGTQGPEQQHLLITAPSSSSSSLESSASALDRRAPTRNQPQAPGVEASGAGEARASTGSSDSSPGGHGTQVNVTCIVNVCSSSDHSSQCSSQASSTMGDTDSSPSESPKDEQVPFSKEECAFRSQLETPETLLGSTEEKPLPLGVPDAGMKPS

T3: hTNFR2 protein (coated on the microplate in the blocking ELISA) (human, UniProt P20333 23-257)
T3 construct: The construct coated in the ELISA is not described (it may or may not be the immunogen, Sino biological 10417-H03H)
T3 sequence (looked up): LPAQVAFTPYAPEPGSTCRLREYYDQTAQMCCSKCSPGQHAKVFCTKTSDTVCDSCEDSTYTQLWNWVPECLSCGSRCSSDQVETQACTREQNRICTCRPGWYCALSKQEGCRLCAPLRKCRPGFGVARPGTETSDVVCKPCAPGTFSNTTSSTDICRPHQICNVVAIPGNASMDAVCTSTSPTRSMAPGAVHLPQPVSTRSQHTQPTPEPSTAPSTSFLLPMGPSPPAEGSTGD

B1: chimeric antibody 69B1 (antibody, human IgG1, kappa, V domains shown)
VH: QIQLVQSGPELKKPGETVKISCKASGYTFTDYSMNWVKQAPGKGLKWMGWLNTETGEPIYADDFKGRFVFSLETSASTAYLEINNLNDEDTATYFCAREAIYYGTSYVLDYWGQGTSVTVSS
VL: DIVLTQSPASLAVSLGQRATISCRASESVEYYGTNFMQWYQQKPGQPPKLLIYSASNVESGVPARFSGSGSGTDFSLNIHPVEEDDIAVYFCQQSRKDPSTFGEGTNLEIKR
B2: positive control antibody OPI (humanized antibody SBT-002e in WO 2017083525) (antibody, V domains shown)
VH: QVTLKESGPALVKPTQTLTLTCTFSGFSLSTSGMGVGWIRQPPGKALEWLAHIWWDDDKFYNPSLKSRLTISKDTSKNQVVLTMTNMDPVDTATYYCARLTGTRYFDYWGQGTTVTVSS
VL: DVQMTQSPSSLSASVGDRVTITCKASQDINKFIAWYQQKPGKAPKLLIHYTSTLQPGIPSRFSGSGSGRDYTFTISSLQPEDIATYYCLQYGNLWTFGGGTKVEIK
notes: also called Benchmark OPI

Columns and labels:
[1] = molecular target: T1, human TNFR2 overexpressed on CHO-S …; experiment: flow cytometry on CHO-S cells overexpressing human TNFR2 (chimeric antibody 69B1 beside the humanized antibodies), MFI-FL2A; unit taken from the axis Conc log(nM)
Experimental: In the study, the binding of the antibodies, after being diluted in a gradient, to a stable CHO-S strain line overexpressing human TNFR2 on the surface was assayed by using a flow cytometer.
CHOS-hTNFR2 cells were counted and diluted to 2×10⁶ cells/mL, and added to a U-bottom 96-well plate at 100 μL/well. The mixture was centrifuged at 300 g for 5 min, and the cell medium was removed. Samples (the humanized antibodies hz3C4.7, hz69B1.5, hz69B1.6, hz69B1.11 and hz69B1.20, the chimeric antibody 69B1, and the positive control antibody OPI) (the antibodies were subjected to a three-fold dilution in PBS from the maximum antibody concentration of 300 nM) were added to the U-plate, and the cells were resuspended at 100 μL/well and left to stand on ice for 30 min. The suspension was centrifuged at 400 g for 5 min, and the supernatant was removed. The cells were washed twice with PBS. The mixture was centrifuged at 300 g for 5 min, and PBS was removed. 100 μL of anti-human Fc PE-labeled secondary antibody (SoutherBiotech; 2040-09) (diluted at a 1:100 ratio in PBS) was added to each well and incubated on ice for 30 min in the dark. The mixture was centrifuged at 400 g for 5 min, and the supernatant was removed. The cells were washed 3 times with PBS. The cells were resuspended in 200 μL of 1×PBS and assayed by FACS.

[2] = molecular target: T2, TNFR2 on human K562 chronic myeloid …; experiment: flow cytometry on human K562 CML cells, MFI(FL2); unit taken from the axis Conc log(nM)
Experimental: (§1) Assay steps: The mixture was centrifuged at 400 g for 5 min, and the cell medium was removed. K562 or Treg cells were resuspended in PBS. After counting, the cells were adjusted to a density of 2×10⁶/mL, and the cell suspension was added to a U-bottom 96-well plate at 100 μL/well. The test antibody was added, subjected to a three-fold gradient dilution, and left to stand on ice for 30 min. The mixture was centrifuged at 300 g for 5 min, and the supernatant was removed. The cells were washed once with PBS. The mixture was centrifuged at 300 g for 5 min, and PBS was removed. 100 μL of PE-anti-human Fc antibody (SOUTHERN BIOTECH, 2040-09) diluted at a ratio of 1:200 was added to each well. The mixture was incubated on ice for 30 min in the dark. The mixture was centrifuged at 400 g for 5 min, and the supernatant was removed. The cells were washed twice with PBS. The cells were resuspended in 100 μL of PBS and assayed by using a flow cytometer (BD, ACCURIC6 plus).

[3] = molecular target: T2, TNFR2 on human K562 chronic myeloid …; experiment: flow cytometry on primary human Treg cells, MFI(FL2); unit taken from the axis Conc log(nM)
Experimental: Tregs were prepared as follows: Human PBMC cells ([…], PB005F) were thawed, CD4⁺ CD25⁺ CD127^low cells were sorted by flow cytometry, and Treg cells were isolated. According to CD4⁺:anti-CD3/CD28 Beads=1:1, Dynabeads Human T-Activator CD3/CD28 (Gibco, 11131D) was added, followed by 10 ng/mL recombinant IL2, and the cells were stimulated for 7 days.
as §1

[4] = molecular target: T3, hTNFR2 protein (coated on the …); experiment: blocking ELISA: hTNFR2 coated on the plate, binding of biotinylated TNFα blocked by the antibody, Avidin-HRP
Experimental: The ability of the hybridoma antibodies 3C4, 69B1, and 72G8 and the control antibody OPI to block the binding of human TNFα to hTNFR2 was assayed by ELISA.
The hTNFR2 protein was resuspended and dissolved to a concentration of 2 μg/mL with PBS, and a microplate was coated with the protein and incubated overnight. The plate was blocked with 5% BSA for 1 h, and a biotinylated antigen (Recombinant Biotinylated TNFα protein (ACRO)) was diluted to 3 μg/mL and added to the plate at 20 μL/well. The antibodies prepared as described above (3C4, 69B1, and 72G8) were each diluted in a gradient starting from the maximum concentration of 300 nM for a total of 8 or 12 dilution gradients. The diluted antibodies were added at 200 μL/well and incubated in PBS on ice for 30 min. The antigen-antibody mixture was incubated in a microplate for 90 min and washed three times with PBS, and the supernatant was discarded. 100 μL of Avidin-HRP (Invitrogen) diluted at a 1:5000 ratio was added to each well, incubated at room temperature for 30 min, and washed six times with PBS. A TMB chromogenic solution (solarbio) was added to the plate at 100 μL/well for color development for 1 min, and the reaction was stopped by adding a stop buffer (solarbio) at 100 μL/well. The plate was read on a microplate reader at OD₄₅₀ and OD₆₂₀.

Binder	EC50 [1] [nM]	EC50 [2] [nM]	EC50 [3] [nM]	IC50 (read off the curve) [4] [nM]
B1	0.489	–	–	–
B2	–	0.0916	0.0738	~6
